Experimental data taken from paper PMC9829517.

Assays:
[1] = target: Ndd^JamL-LipPKS1* (Moorea producens | not stated)

With JamC(E32T)-Cdd^JamK the combined titer of 7 and 8 in E. coli (maximum amount of product) [1] was 16 mg/L and the combined titer of 7 and 8 in E. coli, against unmodified JamC/LipPKS1* [1] was 39 fold.

B1: JamC (E32T) (natural protein)
chain: MENLTVETQNLTSLDNGSIEEKNGPTVDEVQTWLISYLSQLLDLEIEEISTSTSFNRYGLDSSASISLTSDFGDWISKEIDPTILYSYPTIEAMAEHFGA
modifications: holo-ACP, acyl chain loaded by JamA; residue not stated
With B1 the in vitro product formation assay: formation of 7 against wild-type JamC (LipPKS1*) was 7 fold.

B2: JamC (E32H) (natural protein)
chain: MENLTVETQNLTSLDNGSIEEKNGPTVDEVQHWLISYLSQLLDLEIEEISTSTSFNRYGLDSSASISLTSDFGDWISKEIDPTILYSYPTIEAMAEHFGA
modifications: holo-ACP, acyl chain loaded by JamA; residue not stated
In the case of B2, the in vitro product formation assay: formation of 7 against wild-type JamC (DEBSM6*) is reported as 2 fold.
